The text below walks through data of US20020142955.

Data set [1] deals with Mcc-Pro-Leu-Gly-Pro-D-Lys(DNP).
The test system of a further data set is T1, Suc-βAla-Leu-Tyr-Leu-Dox.
T1 sequence: XLYL

Chain of partially purified HeLa cell trouase (HeLa cell anion exchange fraction pool, F1) (chain, as listed by the source): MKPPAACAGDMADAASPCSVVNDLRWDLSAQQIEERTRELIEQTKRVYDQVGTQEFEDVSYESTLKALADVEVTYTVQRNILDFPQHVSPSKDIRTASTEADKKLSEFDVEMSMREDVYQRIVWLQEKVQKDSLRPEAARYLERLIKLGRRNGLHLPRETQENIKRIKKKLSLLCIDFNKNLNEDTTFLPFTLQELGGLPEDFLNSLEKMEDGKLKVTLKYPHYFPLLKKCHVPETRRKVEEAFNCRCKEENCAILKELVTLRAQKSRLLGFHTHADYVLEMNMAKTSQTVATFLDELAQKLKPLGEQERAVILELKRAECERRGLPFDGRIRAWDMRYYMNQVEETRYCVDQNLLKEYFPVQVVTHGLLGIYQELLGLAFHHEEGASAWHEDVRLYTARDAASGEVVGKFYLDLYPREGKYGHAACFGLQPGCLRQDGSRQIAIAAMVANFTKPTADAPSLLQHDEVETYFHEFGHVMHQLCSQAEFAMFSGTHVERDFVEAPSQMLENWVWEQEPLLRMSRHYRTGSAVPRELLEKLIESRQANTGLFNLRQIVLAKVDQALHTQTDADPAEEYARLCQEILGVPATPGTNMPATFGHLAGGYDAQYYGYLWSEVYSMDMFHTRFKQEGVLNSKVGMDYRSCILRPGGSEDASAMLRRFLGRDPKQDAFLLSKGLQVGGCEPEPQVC

Consider “partially purified HeLa cell trouase (HeLa cell anion exchange fraction pool, F1)”, for which the “extent of cleavage (HPLC), fold of that of Suc-βAla-Leu-Ala-Leu-Dnr” value in the data set on Suc-Ala-Leu-Ala-Leu-Dnr is “only 0.6 fold that of the P2 β-alanine compound”. In addition, the rate of hydrolysis (Table 1, (F1)) in the data set on Suc-Ile-NmAla-Leu-Dox amounted to 0; in the data set on Suc-Leu-Ala-Leu-Dox, 0.78; in the data set on Suc-Met-Ala-Leu-Dox, 0.49; in the data set on Suc-Leu-NmAla-Leu-Dox, 0; in [1], 1.5; in the data set on Suc-Ile-Ala-Leu-Dox, 0. Also, the rate of hydrolysis (Table 1, (F1)) with Suc-βAla-Leu-Ala-Leu-Dox turned out to be 1; in the data set on Suc-βAla-Ile-Ala-Leu-Dox it was 0.025; in the data set on Suc-Leu-Ala-Gly-Dox it was 0.4.
For purified Porcine Kidney CD10, in the data set on Suc-βAla-Leu-Ala-Leu-Dox, the % hydrolysis/10 hr (% hydrolysis/10 hr) was determined as 10.9 and the Fraction hydrolyzed relative to standard worked out at 1. In the data set on Suc-βAla-Leu-Tyr-Leu-Dox, this substance displayed a % hydrolysis/10 hr (% hydrolysis/10 hr) of 0 and a Fraction hydrolyzed relative to standard of 0.
